Measured values: patent US20230220038A1, “BRI2 BRICHOS DOMAIN FOR DELIVERY OF PROTEINS INTO CNS NEURONS” (ALPHABETA AB, priority 2021, published 2023)

B1: Bri2 BRICHOS monomers: recombinant human Bri2 BRICHOS (113-231) wild-type, monomeric species (SEQ ID NO: 2) (protein, listed as Homo sapiens)
chain: QTIEENIKIFEEEEVEFISVPVPEFADSDPANIVHDFNKKLTAYLDLNLDKCYVIPLNTSIVMPPRNLLELLINIKAGTYLPQSYLIHEHMVITDRIENIDHLGFFIYRLCHDKETYKL
B2: Bri2 BRICHOS crude: recombinant human Bri2 BRICHOS (113-231) wild-type, crude solution (protein, UniProt Q9Y287 113-231, looked up, fragment)
chain: B1 chain
B3: Bri2 BRICHOS oligomers: recombinant human Bri2 BRICHOS (113-231) wild-type, oligomeric species (protein, UniProt Q9Y287 113-231, looked up, fragment)
chain: B1 chain
modifications: oligomers
notes: recombinant human Bri2 BRICHOS (113-231) wild-type, oligomeric species
B4: NT-Bri2 BRICHOS: rh fusion protein: NT* solubility tag followed by human Bri2 residues 113-231 (protein, UniProt Q9Y287 113-231, looked up, fragment)
chain: B1 chain
modifications: NT* spider silk solubility tag
B5: rh Bri2 BRICHOS-AU1: Rh Bri2 BRICHOS domain, residues 113-231 of Bri2, linked to an AU1 tag at the C-terminal end (SEQ ID NO: 11) (protein, listed as Homo sapiens)
chain: GSQTIEENIKIFEEEEVEFISVPVPEFADSDPANIVHDFNKKLTAYLDLNLDKCYVIPLNTSIVMPPRNLLELLINIKAGTYLPQSYLIHEHMVITDRIENIDHLGFFIYRLCHDKETYKLDTYRYI
modifications: DOMAIN 3..121 Rh Bri2 BRICHOS domain; DOMAIN 122..127 AU1 tag

Tests used:
[1] = test system: SH-SY5Y cells
Procedure: Human neuroblastoma (SH-SY5Y) cell line (ATCC, Manassas, Va.) was grown in Dulbecco's Modified Eagle's Medium (DMEM, PAN-Biotech, Germany) with 4.5 g/L glucose, glutamine (2 mM) and 3.7 g/L NaHCO3, supplemented with 10% Fetal Bovine Serum (FBS, Sera Plus, PAN-Biotech, Germany) and penicillin-streptomycin (100 IU/ml, 100 μg/ml) in TC-coated T75 tissue culture flasks.
(§1) Cell viability was assessed by tetrazolium-based Thiazolyl Blue Tetrazolium Bromide (MTT) assay. For the MTT assay, 50 000 cells/cm^2 were seeded onto clear 96-well plates (TC, Cellstar, Greiner Bio-One, Austria) and grown until confluent, after which the cells were treated with the rh BRICHOS domains in 8 replicates for 24 h in a humidified atmosphere (5% CO2/95% air) at 37° C. Treated cells were incubated with 0.5 mg/ml MTT (Sigma-Aldrich, St. Louis, Mo.) solution in FBS-free cell media for 4 h in a humidified atmosphere (5% CO^2/95% air) at 37° C. The MTT solution was removed and the formazan crystals were dissolved in Dimethyl sulfoxide (DMSO, Sigma-Aldrich, St. Louis, Mo.) and incubated with shaking for 15 min. Absorbance was measured at 570 nm using a FLUOstar OPTIMA microplate reader (BMG Lab Tech, Germany). Untreated cells were used as positive control, and media without cells was used as a negative control. Also 2 μM Staurosporine from Streptomyces sp. (SP, Sigma-Aldrich, St. Louis, Mo.) was used as a negative control.

[2] = test system: SH-SY5Y cells; assay: Cell uptake by western blot, SH-SY5Y; assay type: cell-based, human; conditions: 24 h incubation, western blot band intensities of cell lysate
[3] = test system: hCMEC/D3 cells
Procedure: hCMEC/D3 cells (MilliporeSigma, Burlington, Mass.) were cultivated in EndoGRO-MV Complete Media (MilliporeSigma, Burlington, Mass.), supplemented with 1 ng/ml recombinant human fibroblast growth factor basic (FGF-2, Gibco, Invitrogen, Waltham, Mass.) and penicillin-streptomycin (100 IU/ml, 100 μg/ml, Gibco, Thermo Fisher Scientific, Waltham, Mass.) in T75 tissue culture flasks (TC-coated, DeltaLab, Spain) coated with 5-10 μg/cm^2 rat tail collagen type I (MilliporeSigma, Burlington, Mass.).
as §1

[4] = test system: hCMEC/D3 cells; assay: Cell uptake by western blot, hCMEC/D3; assay type: cell-based, human; conditions: hCMEC/D3, 2 h and 24 h, western blot of cell lysate
Procedure: Once confluent, the hCMEC/D3 cells were treated with 1 μM rh Bri2 BRICHOS monomers, oligomers or proSP-C monomers for 2 h and 24 h. […] Untreated cells were used as control. After the treatment, the cells were lysed as described for the HEK-293 cells.

[5] = test system: hCMEC/D3 monolayer
Procedure: For the preparation of the hCMEC/D3 cell monolayers, transwell ethylene terephthalate (PET) membrane inserts (24-well, clear, pore size 0.4 μm, CellQART, SABEU GmbH & Co. KG, Germany) were coated with rat tail type I collagen (150 μg/ml in 1× Dulbecco's Phosphate-buffered saline pH 7.4, 1×DPBS, Gibco, Thermo Fisher Scientific, Waltham, Mass.) for 2 h at 37° C. […] Media was changed every second day and the cell monolayer was established by day 6.
Experiments were conducted on culture day 6 by adding different BRICHOS protein constructs, or relevant controls to the apical side of the hCMEC/D3 monolayer. […] After the incubation, medium on the apical and basolateral sides of the monolayer was removed and analyzed by Western blotting and the band intensities measured by ImageJ. […] For mCherry and mCherry-Bri2 BRICHOS monomers, fluorescence intensity of the apical and basolateral medium was recorded at λex 570 nm and λem 610 nm, after which the cells were fixed and analyzed by fluorescence microscopy to analyse the uptake of mCherry or mCherry-Bri2 BRICHOS into cells.
FITC fluorescence was measured at λex 492 nm and λem 518 nm. Insulin permeability was determined by western blot and an anti-Insulin monoclonal primary antibody (Sigma, St. Louis, Mo.) at 1:1000 dilution. […]

[6] = test system: wild type mice; conditions: mouse, in vivo, iv, 10 mg/kg
Procedure: Two different types of commercially available microbubbles, either Definity® (Lantheus Medical Imaging, MA, USA) or SonoVue® (Bracco, Milan, Italy) were administered at a dose of 5 μl/g body weight. For one part of the study (FIG. 3A), a total of […] mice were divided into four groups that received, respectively, i.v. injections of microbubbles and PBS (n=4), microbubbles and 1 (n=4), 10 (n=6) or 20 (n=4) mg/kg body weight of rh Bri2 BRICHOS-AU1 (SEQ ID NO: 11). In the second part of the study (FIG. 3B), a total of 3 mice were administered 20 mg/kg rh Bri2 BRICHOS-mCherry (SEQ ID NO: 12) (n=1) or microbubbles+20 mg/kg rh Bri2 BRICHOS-mCherry (n=2) intravenously. […]
96-well plates (Nunc MicroWell™) were coated with anti Bri2 BRICHOS capture antibody diluted in coating buffer (50 mM carbonate pH 9.6) and incubated overnight at 4° C. […] The reaction was stopped by adding stop solution for TMB substrates (Thermo Fisher) and absorbance was measured at 450 nm, using the values for brain homogenates from the non-treated mouse as blank. […]
Calculation of concentrations and total amounts of rh Bri2 BRICHOS-AU1 in each brain hemisphere was assessed by assuming a brain density of […], an average brain hemisphere weight of 225 mg and average of total protein in brain hemisphere homogenates of 25.6 mg.

Molecule | toxicity / cell mitochondrial activity, result in words [1] | cell uptake, result in words [2] | toxicity / cell mitochondrial activity, result in words [3] | cell uptake, result in words [4] | hCMEC/D3 monolayer permeability, result in words [5] | percent of the total amount administered detected in the brain [6] [%]
B1 | no toxicity | linear uptake | no toxicity | taken up |  | 
B2 | slight decrease in the cell mitochondrial activity |  | slight decrease in the cell mitochondrial activity |  |  | 
B3 | slight decrease in the cell mitochondrial activity | detected in the cell lysate to a lesser degree | slight decrease in the cell mitochondrial activity | seem not to be taken up |  | 
B4 |  |  |  |  | only the monomers show permeability | 
B5 |  |  |  |  |  | 1
